Our source for the Kd and EC50 values is PMC10801580 (2024).

The target in experiment [1] is T1, WT RBD-6xHis (receptor-binding domain of the SARS-CoV-2 spike protein) (SARS-CoV-2, UniProt P0DTC2). Description: BLI. (Biolayer interferometry detects binding as a change in optical thickness at a sensor tip.)
The target of experiment [2] is T1, WT RBD-6xHis (receptor-binding domain …). As to the kind of experiment: ELISA. For orientation: In an ELISA, binding on a coated surface is turned into a signal by an enzyme label.

B1: humanized 9-8F2-B11, VH3VL3 combination (antibody, V domains shown)
VH: QVQLVQSGAEVKKPGASVKVSCKASGFNIKETYVHWVRQAPGQGLEWMGRIDPAIGDSEYAQKFQGRVTMTRDTSISTAYMELSRLRSDDTAVYYCARTWGPFFDFWGQGTLVTVSS
VL: DIVMTQTPLSLSVTPGQPASISCKSSQSLLHSHGNTFLHWYLQKPGQSPQVLIYKVSSRFSGVPDRFSGSGSGTDFTLKISRVEAEDVGVYYCSQSTHVPYTFGQGTKLEIK
The term Kd denotes the free concentration of one partner at which half of the binding sites on the other are occupied at equilibrium, for simple one-to-one binding. Lower therefore signals higher affinity. Consider B1, for which, in experiment [1], the Kd is 2.26 nM.

B2: murine 9-8F2-B11 (antibody, V domains shown)
VH: EVQLQQSGAELVKPGASVKLSCTASGFNIKETYVHWVKQRPEQGLEWIGRIDHAIGDSEYDPKFQGKATVTADTSSNTAYLQLSRLTSEDTAVYYCARTWGPFFDFWGQGTTVTVSS
VL: DVVMTQTPLSLPVSLGDQASISCRSSQSLVHSHGNTFLHWYLQKPGQSPKVLIYKVSSRFSGVPDRFSGSGAGTDFTLKISRVEAEDLGVYFCSQSTHVPYTFGGGTKLEIK
One may read the EC50 as the concentration needed to bring the measured effect to its halfway point. A high value points to a less potent agent. As to B2, the midpoint of the response in experiment [2], the EC50, lay at 0.0137 ng/mL. In experiment [1], the Kd stood at 0.913 nM.
